Laboratory results published in the Immune Epitope Database (IEDB).
One block for each sequence: values may come before it.

What was measured:
HLA-C*03:03 = experiment: IEDB peptide-MHC binding, purified MHC/direct/fluorescence; filed as Kd, often an IC50 or EC50 that approximates it; ≥ and ≤ were set here for values at or beyond the usual limits of such assays
HLA-A*69:01 = experiment: as above; conditions: source organism: Mycobacterium tuberculosis
HLA-B*15:02 = experiment: IEDB peptide-MHC binding, purified MHC/competitive/fluorescence; filed as Kd, often an IC50 or EC50 that approximates it; ≥ and ≤ were set here for values at or beyond the usual limits of such assays
HLA-A*02:01 [1] = experiment: as above; conditions: source organism: Vaccinia virus WR
HLA-A*02:19 = experiment: IEDB peptide-MHC binding, purified MHC/direct/fluorescence; filed as Kd, often an IC50 or EC50 that approximates it; ≥ and ≤ were set here for values at or beyond the usual limits of such assays; conditions: source organism: Hantaan virus Q32
HLA-A*02:01 [2] = experiment: as above; conditions: source organism: Orthohantavirus hantanense
HLA-A*02:11 = experiment: as above; conditions: source organism: Hantaan virus Q32
HLA-A*02:12 = experiment: as above; conditions: source organism: Hantaan virus Q32
HLA-A*26:01 [3] = experiment: as above; conditions: source organism: Vibrio vulnificus CMCP6
HLA-A*26:02 = experiment: as above
HLA-C*07:02 = experiment: as above
HLA-B*27:05 = experiment: IEDB peptide-MHC binding, purified MHC/competitive/fluorescence; filed as Kd, often an IC50 or EC50 that approximates it; ≥ and ≤ were set here for values at or beyond the usual limits of such assays
HLA-C*05:01 = experiment: IEDB peptide-MHC binding, purified MHC/direct/fluorescence; filed as Kd, often an IC50 or EC50 that approximates it; ≥ and ≤ were set here for values at or beyond the usual limits of such assays
HLA-B*07:02 = experiment: IEDB peptide-MHC binding, purified MHC/competitive/fluorescence; filed as Kd, often an IC50 or EC50 that approximates it; ≥ and ≤ were set here for values at or beyond the usual limits of such assays; conditions: source organism: Influenza A virus (A/Kayano/57(H2N2))
HLA-B*35:01 = experiment: as above; conditions: source organism: Influenza A virus (A/Kayano/57(H2N2))
HLA-B*51:01 = experiment: as above
HLA-A*26:01 [4] = experiment: as above; conditions: source organism: Homo sapiens
HLA-B*18:01 = experiment: as above; conditions: source organism: Homo sapiens
HLA-B*46:01 = experiment: as above; conditions: source organism: Homo sapiens
HLA-B*39:01 = experiment: as above; conditions: source organism: Homo sapiens
HLA-B*57:01 = experiment: as above; conditions: source organism: Homo sapiens
HLA-B*27:03 = experiment: as above; conditions: source organism: Homo sapiens
HLA-B*15:01 = experiment: as above; conditions: source organism: Homo sapiens
HLA-B*48:01 = experiment: as above
HLA-B*15:42 = experiment: as above
HLA-B*83:01 = experiment: as above
HLA-C*14:02 = experiment: as above
HLA-A*68:23 = experiment: as above
HLA-B*45:06 = experiment: as above
HLA-A*01:01 = experiment: as above; conditions: source organism: Staphylococcus aureus subsp. aureus N315
[5] = source organism: Influenza A virus (A/Kayano/57(H2N2))
[6] = source organism: Staphylococcus aureus subsp. aureus N315

Sequence: ALMDYGFRV
- Kd (HLA-C*03:03; source organism: Mycobacterium tuberculosis variant bovis BCG str. Pasteur 1173P2): ≥ 20000 nM
- Kd (HLA-A*69:01): 42 nM

Sequence: EQRAGYQAF
- Kd (HLA-B*15:02; source organism: Vibrio vulnificus YJ016): 117 nM

Sequence: FLHESDPMV
- Kd (HLA-C*03:03; source organism: Vaccinia virus WR): ≥ 20000 nM
- Kd (HLA-A*02:01 [1]): 1.7 nM

Sequence: FMFNDLLKL
- Kd (HLA-A*02:19): 15 nM
- Kd (HLA-A*02:01 [2]): ≤ 1 nM
- Kd (HLA-C*03:03; source organism: Orthohantavirus): 1250 nM
- Kd (HLA-A*02:11): ≤ 1 nM
- Kd (HLA-A*02:12): 3 nM

Sequence: HVIASMRHF
- Kd (HLA-A*26:01 [3]): 2 nM
- Kd (HLA-A*26:02; source organism: Vibrio vulnificus CMCP6): ≤ 1 nM

- Kd (HLA-C*07:02; source organism: Acanthisitta chloris): 29 nM
Sequence: HYNAFQWAI

Sequence: KRMGVQVQR
- Kd (HLA-B*27:05; source organism: Influenza A virus (A/environment/Hong Kong/437-10/99 (H5N1))): 99.8 nM

Sequence: LPFHNVHPL
- Kd (HLA-C*07:02; [5]): 2490 nM
- Kd (HLA-C*05:01; [5]): ≥ 20000 nM
- Kd (HLA-B*07:02): 5.6 nM
- Kd (HLA-B*35:01): ≤ 0.1 nM
- Kd (HLA-B*51:01; [5]): 202 nM

Sequence: LRAAIELPL
- Kd (HLA-B*27:05; source organism: Mycobacterium tuberculosis H37Ra): 160 nM

- Kd (HLA-C*05:01; source organism: Homo sapiens): 8 nM
- Kd (HLA-A*26:01 [4]): ≥ 20000 nM
- Kd (HLA-B*18:01): ≥ 20000 nM
- Kd (HLA-B*46:01): ≥ 20000 nM
- Kd (HLA-B*39:01): ≥ 20000 nM
- Kd (HLA-B*57:01): ≥ 20000 nM
- Kd (HLA-B*51:01; source organism: Homo sapiens): ≥ 20000 nM
- Kd (HLA-B*27:03): ≥ 20000 nM
- Kd (HLA-B*15:01): ≥ 20000 nM
Sequence: LTDSSTLLV

Sequence: LVALTLTSY
- Kd (HLA-A*26:02; source organism: Yellow fever virus): 180 nM

- Kd (HLA-B*48:01; source organism: Photobacterium angustum S14): 175 nM
Sequence: MQALGHPIL

- Kd (HLA-B*15:42; source organism: Homo sapiens): ≥ 5000 nM
- Kd (HLA-B*83:01; source organism: Homo sapiens): ≥ 5000 nM
- Kd (HLA-C*14:02; source organism: Homo sapiens): 112 nM
- Kd (HLA-A*68:23; source organism: Homo sapiens): 67.7 nM
- Kd (HLA-B*45:06; source organism: Homo sapiens): ≥ 5000 nM
Sequence: RLPKDFVDL

Sequence: SQDDNYFTL
- Kd (HLA-C*03:03; source organism: Giardia lamblia P15): 266 nM

- Kd (HLA-B*15:02; source organism: Escherichia coli str. K-12 substr. MG1655): 23.8 nM
Sequence: SQMPTSLNF

Sequence: VQHAPQVSL
- Kd (HLA-B*48:01; source organism: Giardia lamblia ATCC 50803): 137 nM

Sequence: WLVNTYQNY
- Kd (HLA-B*15:02; source organism: Cryptosporidium parvum): 80.2 nM

Sequence: YGLERLAAM
- Kd (HLA-C*07:02; source organism: human gammaherpesvirus 4): 18 nM

Sequence: YTIGIGAFY
- Kd (HLA-A*01:01): 1.5 nM
- Kd (HLA-B*15:42; [6]): ≥ 5000 nM
- Kd (HLA-B*83:01; [6]): ≥ 5000 nM
- Kd (HLA-C*14:02; [6]): 9.4 nM
- Kd (HLA-A*68:23; [6]): ≤ 0.1 nM
- Kd (HLA-B*45:06; [6]): ≥ 5000 nM
